Reference: patent publication US20230002480A1

What was measured:
Assay in all cases: cell-based or functional assay
[1] = target: HIV-1 Env of pseudovirus 1006_11_C3_1601 (HIV-1)
[2] = target: HIV-1 Env of pseudovirus RHPA4259.7 (HIV-1)
[3] = target: HIV-1 Env of pseudovirus X1254_c3 (HIV-1)
[4] = target: HIV-1 Env of pseudovirus CNE30 (HIV-1)
[5] = target: HIV-1 Env of pseudovirus 249M B10 (HIV-1)
[6] = target: HIV-1 Env of pseudovirus P0402_c2_11 (HIV-1)
[7] = target: HIV-1 Env of pseudovirus Du156.12 (HIV-1)
[8] = target: HIV-1 Env of pseudovirus ZM53M.PB12 (HIV-1)
[9] = target: HIV-1 Env of pseudovirus R2184.c04 (HIV-1)
[10] = target: HIV-1 Env of pseudovirus X1632_S2_B10 (HIV-1)
[11] = target: HIV-1 Env of pseudovirus 6480.v4.c25 (HIV-1)
[12] = target: HIV-1 Env of pseudovirus Q259.d2.17 (HIV-1)
[13] = target: HIV-1 Env of pseudovirus Ce703010054_2A2 (HIV-1)
[14] = target: HIV-1 Env of pseudovirus CNE58 (HIV-1)
[15] = target: HIV-1 Env of pseudovirus 235-47 (HIV-1)
[16] = target: HIV-1 Env of pseudovirus 231965.c01 (HIV-1)
[17] = target: HIV-1 Env of pseudovirus HIV-16055-2.3 (HIV-1)
[18] = target: HIV-1 Env of pseudovirus 1394C9G1(Rev-) (HIV-1)
[19] = target: HIV-1 Env of pseudovirus CNE19 (HIV-1)
[20] = target: HIV-1 Env of pseudovirus 62357_14_D3_4589 (HIV-1)
[21] = target: HIV-1 Env of pseudovirus C4118.c09 (HIV-1)
[22] = target: HIV-1 Env of pseudovirus 6545.v4.c1 (HIV-1)
[23] = target: HIV-1 Env of pseudovirus Du422.1 (HIV-1)
[24] = target: HIV-1 Env of pseudovirus Q842.d12 (HIV-1)
[25] = target: HIV-1 Env of pseudovirus CNE17 (HIV-1)
[26] = target: HIV-1 Env of pseudovirus ZM109F.PB4 (HIV-1)
[27] = target: HIV-1 Env of pseudovirus BJOX015000.11.5 (HIV-1)
[28] = target: HIV-1 Env of pseudovirus SC422661.8 (HIV-1)
[29] = target: HIV-1 Env of pseudovirus 6240_08_TA5_4622 (HIV-1)
[30] = target: HIV-1 Env of pseudovirus 191955_A11 (HIV-1)
[31] = target: HIV-1 Env of pseudovirus 3103.v3.c10 (HIV-1)
[32] = target: HIV-1 Env of pseudovirus 211-9 (HIV-1)
[33] = target: HIV-1 Env of pseudovirus CAP45.2.00.G3 (HIV-1)
[34] = target: HIV-1 Env of pseudovirus BJOX009000.02.4 (HIV-1)
[35] = target: HIV-1 Env of pseudovirus 1012_11_TC21_3257 (HIV-1)
[36] = target: HIV-1 Env of pseudovirus BF1266.431a (HIV-1)
[37] = target: HIV-1 Env of pseudovirus 6041.v3.c23 (HIV-1)

Substance: PGT121 (antibody)
- IC50 [1]: 0.002 µg/mL
- IC80 [1]: 0.007 µg/mL
- IC80 [2]: 0.035 µg/mL
- IC50 [3]: 0.014 µg/mL
- IC80 [3]: 0.08 µg/mL
- IC50 [4]: 0.078 µg/mL
- IC80 [4]: 0.291 µg/mL
- IC50 [5]: > 50 µg/mL
- IC80 [5]: > 50 µg/mL
- IC50 [6]: 0.005 µg/mL
- IC50 [7]: 0.004 µg/mL
- IC80 [7]: 0.017 µg/mL
- IC50 [8]: < 0.001 µg/mL
- IC80 [8]: 0.004 µg/mL
- IC50 [9]: > 50 µg/mL
- IC80 [9]: > 50 µg/mL
- IC50 [10]: > 50 µg/mL
- IC80 [10]: > 50 µg/mL
- IC50 [11]: < 0.001 µg/mL
- IC80 [11]: 0.004 µg/mL
- IC50 [12]: 15.4 µg/mL
- IC80 [12]: > 50 µg/mL
- IC50 [13]: > 50 µg/mL
- IC80 [13]: > 50 µg/mL
- IC50 [14]: > 50 µg/mL
- IC80 [14]: > 50 µg/mL
- IC50 [15]: 0.137 µg/mL
- IC80 [15]: 0.727 µg/mL
- IC50 [16]: > 50 µg/mL
- IC80 [16]: > 50 µg/mL
- IC50 [17]: 0.153 µg/mL
- IC80 [17]: 4.8 µg/mL
- IC50 [18]: 0.264 µg/mL
- IC80 [18]: 1.95 µg/mL
- IC50 [19]: 0.008 µg/mL
- IC80 [19]: 0.105 µg/mL
- IC50 [20]: 2.6 µg/mL
- IC80 [20]: > 50 µg/mL
- IC50 [21]: > 50 µg/mL
- IC80 [21]: > 50 µg/mL
- IC50 [22]: > 50 µg/mL
- IC80 [22]: > 50 µg/mL
- IC50 [23]: 0.039 µg/mL
- IC80 [23]: 0.143 µg/mL
- IC50 [24]: 0.005 µg/mL
- IC50 [25]: 7.6 µg/mL
- IC80 [25]: > 50 µg/mL
- IC50 [26]: 8.64 µg/mL
- IC80 [26]: > 50 µg/mL
- IC50 [27]: > 50 µg/mL
- IC80 [27]: > 50 µg/mL
- IC50 [28]: 0.038 µg/mL
- IC80 [28]: 0.177 µg/mL
- IC50 [29]: 0.033 µg/mL
- IC80 [29]: 0.127 µg/mL
- IC50 [30]: > 50 µg/mL
- IC80 [30]: > 50 µg/mL
- IC50 [31]: 0.009 µg/mL
- IC80 [31]: 0.028 µg/mL
- IC50 [32]: 0.852 µg/mL
- IC80 [32]: 4.2 µg/mL
- IC50 [33]: 1.63 µg/mL
- IC80 [33]: > 50 µg/mL
- IC50 [34]: 2.86 µg/mL
- IC80 [34]: 31.7 µg/mL
- IC50 [35]: 0.003 µg/mL
- IC80 [35]: 0.017 µg/mL
- IC50 [36]: > 50 µg/mL
- IC80 [36]: > 50 µg/mL
- IC50 [37]: > 50 µg/mL
- IC80 [37]: > 50 µg/mL

Substance: PGT128 (antibody)
- IC50 [1]: 0.011 µg/mL
- IC80 [1]: 0.04 µg/mL
- IC50 [2]: 0.026 µg/mL
- IC80 [2]: 0.109 µg/mL
- IC50, titer in TZM.bl cells [3]: > 50 µg/mL
- IC80, titer in TZM.bl cells [3]: > 50 µg/mL
- IC50 [4]: 2.06 µg/mL
- IC80 [4]: 12.6 µg/mL
- IC50 [5]: 7.87 µg/mL
- IC80 [5]: > 50 µg/mL
- IC50, titer in TZM.bl cells [6]: 0.007 µg/mL
- IC80, titer in TZM.bl cells [6]: 0.02 µg/mL
- IC50 [7]: 0.017 µg/mL
- IC80 [7]: 0.046 µg/mL
- IC50 [8]: > 50 µg/mL
- IC80 [8]: > 50 µg/mL
- IC50, titer in TZM.bl cells [9]: 20.1 µg/mL
- IC80, titer in TZM.bl cells [9]: > 50 µg/mL
- IC50, titer in TZM.bl cells [10]: > 50 µg/mL
- IC80, titer in TZM.bl cells [10]: > 50 µg/mL
- IC50, titer in TZM.bl cells [11]: 0.003 µg/mL
- IC80, titer in TZM.bl cells [11]: 0.019 µg/mL
- IC50 [12]: > 50 µg/mL
- IC80 [12]: > 50 µg/mL
- IC50 [13]: > 50 µg/mL
- IC80 [13]: > 50 µg/mL
- IC50 [14]: 13.8 µg/mL
- IC80 [14]: > 50 µg/mL
- IC50, titer in TZM.bl cells [15]: > 50 µg/mL
- IC80, titer in TZM.bl cells [15]: > 50 µg/mL
- IC50, titer in TZM.bl cells [16]: > 50 µg/mL
- IC80, titer in TZM.bl cells [16]: > 50 µg/mL
- IC50 [17]: > 50 µg/mL
- IC80 [17]: > 50 µg/mL
- IC50 [18]: 0.011 µg/mL
- IC80 [18]: 0.034 µg/mL
- IC50 [19]: > 50 µg/mL
- IC80 [19]: > 50 µg/mL
- IC50 [20]: 1.14 µg/mL
- IC80 [20]: > 50 µg/mL
- IC50, titer in TZM.bl cells [21]: > 50 µg/mL
- IC80, titer in TZM.bl cells [21]: > 50 µg/mL
- IC50, titer in TZM.bl cells [22]: > 50 µg/mL
- IC80, titer in TZM.bl cells [22]: > 50 µg/mL
- IC50 [23]: 0.039 µg/mL
- IC80 [23]: 0.113 µg/mL
- IC50 [24]: 0.008 µg/mL
- IC80 [24]: 0.102 µg/mL
- IC50 [25]: 0.432 µg/mL
- IC80 [25]: 1.99 µg/mL
- IC50 [26]: > 50 µg/mL
- IC80 [26]: > 50 µg/mL
- IC50, titer in TZM.bl cells [27]: 0.001 µg/mL
- IC80, titer in TZM.bl cells [27]: 0.011 µg/mL
- IC50 [28]: 1.08 µg/mL
- IC80 [28]: 18.4 µg/mL
- IC50 [29]: 0.019 µg/mL
- IC80 [29]: 0.055 µg/mL
- IC50 [30]: 14.2 µg/mL
- IC80 [30]: > 50 µg/mL
- IC50, titer in TZM.bl cells [31]: 0.014 µg/mL
- IC80, titer in TZM.bl cells [31]: 0.033 µg/mL
- IC50, titer in TZM.bl cells [32]: 0.062 µg/mL
- IC80, titer in TZM.bl cells [32]: 0.215 µg/mL
- IC50 [33]: > 50 µg/mL
- IC80 [33]: > 50 µg/mL
- IC50, titer in TZM.bl cells [34]: < 0.001 µg/mL
- IC80, titer in TZM.bl cells [34]: 0.005 µg/mL
- IC50 [35]: 0.011 µg/mL
- IC80 [35]: 0.033 µg/mL
- IC50 [36]: > 50 µg/mL
- IC80 [36]: > 50 µg/mL
- IC50, titer in TZM.bl cells [37]: > 50 µg/mL
- IC80, titer in TZM.bl cells [37]: > 50 µg/mL
